The record followed here is paper PMC8786284, “Serine acetyltransferase from Neisseria gonorrhoeae; structural and biochemical basis of inhibition” (Biochemical Journal, 2022).

Data set [1] addresses T1, Serine acetyltransferase (NgSAT) (Neisseria gonorrhoeae, UniProt Q5F6X0).
T1 construct: gene NGO_1423; full-length, N-terminal His-tag, hexamer
The data set can be described thus: biochemical.

Data set [2] deals with the molecule itself. Briefly: SEC-SAXS; Superdex 200 5/150 in line with SAXS, co-flow; 50 mM Tris pH 8.0, 100 mM NaCl, without or with 50 µM L-cysteine; 25°C; mass from Porod volume and P(r) analysis. For orientation: In gel filtration, larger molecules generally elute earlier.
Substrate in data set [3]: CC(=O)SCCNC(=O)CCNC(=O)[C@H](O)C(C)(C)COP(=O)(O)OP(=O)(O)OC[C@H]1O[C@@H](n2cnc3c(N)ncnc32)[C@H](O)[C@@H]1OP(=O)(O)O
Briefly: Michaelis-Menten kinetics (KM) with purified enzyme. The data set is classed as biochemical, Neisseria gonorrhoeae.

Data set [4] concerns the molecule itself. Briefly: SEC; Enrich 650 analytical gel filtration column calibrated with Gel Filtration Standards (Bio-Rad); 50 mM Tris pH 8.0, 100 mM NaCl; oligomeric state of NgSAT.
Substrate in the data set “purified protein”: N[C@@H](CO)C(=O)O
The data set can be described thus: purified protein. The conditions noted are these: active site between adjacent monomers; Asp96, Asp161, His162, Arg196, His197. The data set is classed as biochemical, Neisseria gonorrhoeae.

By IC50 is commonly meant the concentration at which inhibition is half-maximal. Low values mean inhibition by little substance, high ones a need for much substance. By stoichiometry N is commonly meant the number of molecules, sites or subunits per partner or assembly. What is called Km is the concentration of substrate that gives half-maximal velocity. A word on the kcat: it is the number of substrate molecules converted per active site and unit of time at saturation. The kcat/Km is the second-order rate constant that governs catalysis at low substrate concentration.

For the molecule `CC(C)(COP(=O)(O)OP(=O)(O)OC[C@H]1O[C@@H](n2cnc3c(N)ncnc32)[C@H](O)[C@@H]1OP(=O)(O)O)[C@@H](O)C(=O)NCCC(=O)NCCS` [coenzyme A], half-maximal inhibition in data set [1] (IC50) was put at 573 ± 11 µM.

B1: Neisseria gonorrhoeae serine acetyltransferase (enzyme, Neisseria gonorrhoeae MS11, UniProt Q5F6X0 1-272, looked up)
chain: MKKNHLNTTGFDLWHTIREETAAAAAAEPMLASFLHQTVLRHESLGSVLAYHLSSKLGSPIMDVRALFEIYQQALGSDTQISKCVEADLKAIYERDPACDEYSLPLLYFKGFHAIQAHRINHRLYLDGRKTLAYFLQNRMSEVFGVDIHPAARLGYGLMLDHATGFVAGETAVLGNNISILHGVTLGGSGKEGGDRHPKIGDGVMIGANASILGNIRIGSNAKIGAGSVVVSDVPPSITVVGVPAKPVARSLKTPSADMDQNIQFAEIDFMI
notes: 272-residue polypeptide (N-terminal domain 1-144, LbetaH domain 145-272) with an uncleaved 21-residue N-terminal histidine tag; monomer with tag 31.6 kDa; Hexamer (dimer of trimers); also called NgSAT; SAT; source: E. coli BL21 (DE3), purified (HisTrap IMAC, gel filtration); not shown: His-tag, N-terminal, kept
For B1, in data set [2], the “stoichiometry N” value turned out to be 6.1 monomers per structure. In data set [3], the Km was 149 ± 50 µM, the kcat was 1180 ± 111 s⁻¹ and the kcat/Km came to 7.89e+06 M⁻¹ s⁻¹. Besides, in data set [4], the “stoichiometry N” value amounted to 6. Moreover, in “purified protein”, the Km was 1210 ± 160 µM, the kcat was determined as 1440 ± 41 s⁻¹ and the kcat/Km turned out to be 1.19e+06 M⁻¹ s⁻¹.
